Bridge positions count the residues as written; N and C are the ends. Ends that are not written are not given here.
T1: ovalbumin (Gallus gallus, UniProt P01012)
T1 construct: purchased Sigma A5378
T1 sequence (P01012 1-386): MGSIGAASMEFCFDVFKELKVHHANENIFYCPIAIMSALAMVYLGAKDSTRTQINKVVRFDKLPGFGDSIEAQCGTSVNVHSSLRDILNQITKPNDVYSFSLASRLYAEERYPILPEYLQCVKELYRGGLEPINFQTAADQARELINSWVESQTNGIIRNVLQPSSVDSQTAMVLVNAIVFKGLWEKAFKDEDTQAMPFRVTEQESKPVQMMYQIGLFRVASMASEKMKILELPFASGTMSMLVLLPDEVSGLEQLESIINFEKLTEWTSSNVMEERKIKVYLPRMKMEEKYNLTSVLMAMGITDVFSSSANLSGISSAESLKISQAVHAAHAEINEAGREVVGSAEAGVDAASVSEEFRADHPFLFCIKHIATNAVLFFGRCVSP

T2: ovalbumin (negative control antigen) (UniProt P01012 2-386)
T2 construct: Bought protein
T2 sequence (looked up): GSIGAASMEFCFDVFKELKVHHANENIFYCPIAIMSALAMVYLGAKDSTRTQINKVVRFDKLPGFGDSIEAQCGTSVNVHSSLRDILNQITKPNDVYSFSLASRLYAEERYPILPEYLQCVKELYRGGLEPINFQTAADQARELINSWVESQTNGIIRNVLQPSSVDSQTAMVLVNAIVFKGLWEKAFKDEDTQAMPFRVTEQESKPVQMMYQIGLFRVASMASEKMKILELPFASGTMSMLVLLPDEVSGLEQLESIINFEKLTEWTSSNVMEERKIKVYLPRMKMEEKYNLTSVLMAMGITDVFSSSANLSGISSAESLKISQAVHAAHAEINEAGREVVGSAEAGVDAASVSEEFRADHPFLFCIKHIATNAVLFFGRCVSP

B1: 17D12-CDR3-C, constrained truncated CDR3 loop of 17D12 without flanking FR, expressed on pIII of M13 phage (peptide, not shown: large carriers)
peptide: CAAASYSDYDVFGGGTDFGPAC
modifications: disulfide 1-22; not fully specified
notes: Tested as phage; also called constrained truncated peptide
B2: 2D3-GlySer-17D12(S): 17D12 peptide (FR3 Cys replaced with Ser) fused at the C-terminus of VHH 2D3 via a Gly4Ser-Gly3Ser linker, expressed on pIII of M13 phage (other, not shown: large carriers)
chain: GGGGSGGGSDTAVYYSNAAASYSDYDVFGGGTDFGPWGQGTQV
modifications: not fully specified (N-terminus); also: fused to C-terminus of VHH 2D3, displayed on M13 pIII
notes: VHH-peptide fusion tested as phage; also called VHH-GlySer-17D12(S)
B3: 2D3-17D12(S): 17D12 peptide (FR3 Cys replaced with Ser) fused at the C-terminus of VHH 2D3 without linker, expressed on pIII of M13 phage (other, not shown: large carriers)
chain: DTAVYYSNAAASYSDYDVFGGGTDFGPWGQGTQV
modifications: not fully specified (N-terminus); also: fused to C-terminus of VHH 2D3, displayed on M13 pIII
notes: VHH-peptide fusion tested as phage; also called VHH-17D12(S)

Tests used:
[1] = biological target: T1, ovalbumin; assay: Phage binding assay on coated negative control antigen ovalbumin; settings: for Binding to negative control ovalbumin (Example 7): 1/2 dilution series starting with 10^12 phages/mL; for Binding to negative control ovalbumin (Example 4): 1/2 dilution series starting with 7.5×10^11 phages/mL; for Non-specific binding to irrelevant protein ovalbumin (Example 5): different phage concentrations
Experimental: (§1) After two selection rounds, monoclonal phage were screened for binding on HSA versus negative control antigen, ovalbumin (A5378, Sigma). Wells of a Maxisorp microtiter plate (Nunc) were coated using 10 μg/mL HSA or ovalbumin and blocked with SuperBlock T20 PBS Blocking Buffer (Pierce) to prevent non-specific binding. Phages, produced in 96-well plate, were diluted 1/10 in 1:1 (v:v) Superblock T20 PBS Blocking Buffer:PBS+0.05% Tween-20 and incubated on both HSA and ovalbumin. Bound phages were detected using anti-M13 (GE Healthcare) and goat anti-mouse IRDye700 (Rockland) and signals were read-out on Odyssey (LI-COR Biosciences). […] Both ‘hits’ were selected from the same library, i.e. originating from llama 117 in the non-constrained format. […] This peptide is referred to as 17D12. Its full amino acid sequence is given in SEQ ID NO: 1, and its encoding nucleotide sequence is given in SEQ ID NO:2. The amino acid sequence of the CDR3 loop is given in SEQ ID NO:3.
(§2) The phage binding assay was performed essentially as described in example 3. Phages, produced in 10 mL culture volume, were incubated on both HSA and ovalbumin in a ½ dilution series, starting with 7.5×10^11 phages/mL. […] Non-specific binding to ovalbumin is slightly higher for the constrained truncated peptide.
(§3) Binding of 17D12, as selected from primary screening after 2 selection rounds on HSA, to serum albumin of different species [mouse serum albumin (MSA, A3559, Sigma), cynomolgus serum albumin (CSA, in-house production), bovine serum albumin (BSA, A6003, Sigma) and HSA] and to negative control antigens [ovalbumin, human tumor necrosis factor α (TNF, in-house production)] was assessed using different phage concentrations. Additionally, similar binding studies were performed with two truncated variants of 17D12. Both peptides, i.e. 17D12-CDR3-NC (SEQ ID NO: 26) and 17D12-CDR3-C (SEQ ID NO;27), lack the flanking FR residues of 17D12 and the former is a non-constrained loop, whereas the latter is constrained (FIG. 4).
(§4) The phage binding assay was performed essentially as described in example 4.
(§5) The phage binding assay to HSA and ovalbumin was performed essentially as described in example 4. Phages, produced in 10 mL culture volume, were incubated on both HSA and ovalbumin in a ½ dilution series, starting with 10^12 phages/mL.

[2] = biological target: T3, human serum albumin (HSA) (Homo sapiens, UniProt P02768); assay: Phage binding assay: peptide expressed on pIII of M13 phage, on coated HSA (anti-M13 detection, Odyssey read-out); settings: for Binding to HSA (Example 7, VHH fusions on phage): 1/2 dilution series starting with 10^12 phages/mL; for Binding to HSA (Example 4): 1/2 dilution series starting with 7.5×10^11 phages/mL; for Binding to HSA (Example 5, cross-reactivity): different phage concentrations
T3 construct: purchased Sigma A5763
Experimental: as §1, §2, §3, §4, §5

[3] = biological target: T4, bovine serum albumin (BSA) (Bos taurus, UniProt P02769); assay: Phage binding assay, cross-reactivity to bovine serum albumin; settings: different phage concentrations
T4 construct: purchased Sigma A6003
Experimental: as §1, §3, §4

[4] = biological target: T5, cynomolgus serum albumin (CSA) (Macaca fascicularis, UniProt A2V9Z4); assay: Phage binding assay, cross-reactivity to cynomolgus serum albumin; settings: different phage concentrations
T5 construct: made in house
Experimental: as §1, §3, §4

[5] = biological target: T6, human tumor necrosis factor α (TNF) (Homo sapiens, UniProt P01375); assay: Phage binding assay, specificity against negative control antigen TNF; settings: different phage concentrations
T6 construct: made in house
Experimental: as §1, §3, §4

[6] = biological target: T7, mouse serum albumin (MSA) (Mus musculus, UniProt P07724); assay: Phage binding assay, cross-reactivity to mouse serum albumin; settings: different phage concentrations
T7 construct: purchased Sigma A3559
Experimental: as §1, §3, §4

[7] = biological target: T8, human serum albumin (human, UniProt P02768 25-609); assay: phage binding assay: 10 µg/mL HSA coated on Maxisorp, M13 phage displaying the peptide on pIII in 1/2 dilution series, anti-M13 + goat anti-mouse IRDye700, Odyssey intensity
T8 construct: Bought protein; also called HSA
Experimental: After two selection rounds, monoclonal phage were screened for binding on HSA versus negative control antigen, ovalbumin (A5378, Sigma). Wells of a Maxisorp microtiter plate (Nunc) were coated using 10 μg/mL HSA or ovalbumin and blocked with SuperBlock T20 PBS Blocking Buffer (Pierce) to prevent non-specific binding. Phages, produced in 96-well plate, were diluted 1/10 in 1:1 (v:v) Superblock T20 PBS Blocking Buffer:PBS+0.05% Tween-20 and incubated on both HSA and ovalbumin. Bound phages were detected using anti-M13 (GE Healthcare) and goat anti-mouse IRDye700 (Rockland) and signals were read-out on Odyssey (LI-COR Biosciences). […] This peptide is referred to as 17D12. Its full amino acid sequence is given in SEQ ID NO: 1, and its encoding nucleotide sequence is given in SEQ ID NO:2. The amino acid sequence of the CDR3 loop is given in SEQ ID NO:3.
as §2, with “7.5×10¹¹” for “7.5×10^11”

[8] = biological target: T9, cynomolgus serum albumin (cynomolgus, UniProt A2V9Z4 25-608); assay: phage binding assay on coated Maxisorp wells, 5 phage dilutions per peptide (concentrations not given), Odyssey image
T9 construct: also called CSA; cynoSA
Experimental: as §3
(§6) The phage binding assay was performed essentially as described in example 4. Full length 17D12 peptide as well as truncated peptides, 17D12-CDR3-NC and 17D12-CDR3-C, bind dose-dependently to HSA and CSA, whereas reactivity to MSA and BSA was not apparent in the assay performed (FIG. 6). There is no significant non-specific binding of 17D12 and 17D12-CDR3-NC to irrelevant proteins tested (ovalbumin and TNF). In contrast, there is a subtle degree of non-specific binding with the constrained truncated peptide.

[9] = biological target: T10, bovine serum albumin (bovine, UniProt P02769 25-607); assay: phage binding assay on coated Maxisorp wells, 5 phage dilutions per peptide, Odyssey image
T10 construct: also called BSA
Experimental: as §3, §6

[10] = biological target: T11, mouse serum albumin (mouse, UniProt P07724 25-608); assay: as above
T11 construct: also called MSA
Experimental: as §3, §6

[11] = biological target: T2, ovalbumin (negative control antigen); assay: phage binding assay: ovalbumin coated on Maxisorp, M13 phage in 1/2 dilution series from 10^12 phages/mL, Odyssey intensity
Experimental: The phage binding assay to HSA and ovalbumin was performed essentially as described in example 4. Phages, produced in 10 mL culture volume, were incubated on both HSA and ovalbumin in a ½ dilution series, starting with 10¹² phages/mL. Dose-dependent binding to HSA was retained upon fusion of the peptide 17D12 at the C-terminus of a non-albumin binding intact VHH in the presence or absence of a GlySer linker (FIG. 9).

T6 sequence (P01375 77-233 limits assumed): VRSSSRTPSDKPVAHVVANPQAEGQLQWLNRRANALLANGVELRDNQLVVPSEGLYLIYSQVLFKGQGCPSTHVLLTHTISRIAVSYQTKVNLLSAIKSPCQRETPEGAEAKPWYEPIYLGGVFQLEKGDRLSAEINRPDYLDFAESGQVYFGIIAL
T7 sequence (P07724 25-608): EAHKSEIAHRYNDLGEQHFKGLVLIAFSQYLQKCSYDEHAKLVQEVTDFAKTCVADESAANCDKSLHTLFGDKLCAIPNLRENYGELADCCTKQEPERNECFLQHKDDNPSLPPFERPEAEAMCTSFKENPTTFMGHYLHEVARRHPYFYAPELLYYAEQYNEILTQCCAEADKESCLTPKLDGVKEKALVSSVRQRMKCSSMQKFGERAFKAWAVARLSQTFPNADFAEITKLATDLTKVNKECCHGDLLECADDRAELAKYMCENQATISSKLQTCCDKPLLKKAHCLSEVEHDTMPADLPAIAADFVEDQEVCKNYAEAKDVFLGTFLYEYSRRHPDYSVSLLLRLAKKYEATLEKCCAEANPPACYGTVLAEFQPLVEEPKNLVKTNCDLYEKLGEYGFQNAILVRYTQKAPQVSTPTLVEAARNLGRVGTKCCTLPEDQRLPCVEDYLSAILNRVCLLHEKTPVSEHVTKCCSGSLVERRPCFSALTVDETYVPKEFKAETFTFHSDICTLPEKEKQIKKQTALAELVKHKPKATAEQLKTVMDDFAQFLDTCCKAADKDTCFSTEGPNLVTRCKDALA
T4 sequence (P02769 25-607): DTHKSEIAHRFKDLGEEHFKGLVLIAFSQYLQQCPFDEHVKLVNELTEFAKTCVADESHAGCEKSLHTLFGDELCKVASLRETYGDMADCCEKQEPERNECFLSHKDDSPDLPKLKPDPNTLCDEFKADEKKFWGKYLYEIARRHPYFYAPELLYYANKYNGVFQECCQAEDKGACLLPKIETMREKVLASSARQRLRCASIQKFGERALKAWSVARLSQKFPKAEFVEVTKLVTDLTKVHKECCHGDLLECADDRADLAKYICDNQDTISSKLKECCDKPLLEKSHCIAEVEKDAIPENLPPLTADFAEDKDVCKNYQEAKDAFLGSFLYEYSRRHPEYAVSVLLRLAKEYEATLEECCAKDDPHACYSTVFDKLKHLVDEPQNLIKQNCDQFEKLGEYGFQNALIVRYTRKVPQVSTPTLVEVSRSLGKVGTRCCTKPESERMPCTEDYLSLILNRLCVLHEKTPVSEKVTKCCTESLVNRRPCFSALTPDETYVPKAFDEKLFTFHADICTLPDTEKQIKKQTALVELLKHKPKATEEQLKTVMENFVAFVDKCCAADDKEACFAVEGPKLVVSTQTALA
T5 sequence (A2V9Z4 25-608): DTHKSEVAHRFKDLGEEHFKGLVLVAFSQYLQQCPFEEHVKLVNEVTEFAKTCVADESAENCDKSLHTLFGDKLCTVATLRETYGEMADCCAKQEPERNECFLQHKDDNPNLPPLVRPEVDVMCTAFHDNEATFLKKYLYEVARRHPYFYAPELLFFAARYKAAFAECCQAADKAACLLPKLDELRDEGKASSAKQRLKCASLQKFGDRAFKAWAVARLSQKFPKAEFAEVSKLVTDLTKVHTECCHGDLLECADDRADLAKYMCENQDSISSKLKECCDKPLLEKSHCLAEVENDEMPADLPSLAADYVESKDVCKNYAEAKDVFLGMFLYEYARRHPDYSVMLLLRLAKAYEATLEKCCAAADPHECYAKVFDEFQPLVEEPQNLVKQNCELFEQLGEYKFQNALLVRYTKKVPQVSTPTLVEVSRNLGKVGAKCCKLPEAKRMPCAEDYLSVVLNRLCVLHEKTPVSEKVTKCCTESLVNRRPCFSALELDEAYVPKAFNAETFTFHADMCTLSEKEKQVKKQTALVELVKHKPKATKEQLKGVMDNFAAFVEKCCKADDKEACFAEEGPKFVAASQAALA
T11 sequence (P07724 25-608 limits assumed): as the sequence (P07724 25-608) above
T10 sequence (P02769 25-607 limits assumed): as the sequence (P02769 25-607) above
T9 sequence (A2V9Z4 25-608 limits assumed): as the sequence (A2V9Z4 25-608) above

| Molecule | Binding to negative control ovalbumin (Example 7) [1] | Binding to HSA (Example 7, VHH fusions on phage) [2] | Reactivity to BSA [3] | Binding to CSA [4] | Binding to negative control ovalbumin (Example 4) [1] | Non-specific binding to irrelevant protein ovalbumin (Example 5) [1] | Non-specific binding to irrelevant protein TNF [5] | Reactivity to MSA [6] | Binding to HSA (Example 4) [2] | Binding to HSA (Example 5, cross-reactivity) [2] | also measured |
| --- | --- | --- | --- | --- | --- | --- | --- | --- | --- | --- | --- |
| 2D3-17D12(S): 17D12 (FR3 Cys replaced with Ser) fused at C-terminus of VHH 2D3 without linker, on M13 phage (DTAVYYSNAAASYSDYDVFGGGTDFGPWGQGTQV; not fully specified (N-terminus); also: displayed on M13 phage) | not to negative control peptide, ovalbumin | bind dose-dependently to HSA |  |  |  |  |  |  |  |  |  |
| 2D3-GlySer-17D12(S): 17D12 (FR3 Cys replaced with Ser) fused at C-terminus of VHH 2D3 via Gly4Ser-Gly3Ser linker, on M13 phage (GGGGSGGGSDTAVYYSNAAASYSDYDVFGGGTDFGPWGQGTQV; not fully specified (N-terminus); also: displayed on M13 phage) | not to negative control peptide, ovalbumin | bind dose-dependently to HSA |  |  |  |  |  |  |  |  |  |
| aaasysdydvfgggtdfgpa (AAASYSDYDVFGGGTDFGPA; also: displayed on M13 pIII) [17D12-CDR3-NC, truncated 17D12 lacking flanking FR residues, non-constrained loop, on M13 phage] |  |  | not apparent | bind dose-dependently | not to negative control peptide, ovalbumin | no significant non-specific binding | no significant non-specific binding | not apparent | bind dose-dependently to HSA | bind dose-dependently |  |
| caaasysdydvfgggtdfgpac (CAAASYSDYDVFGGGTDFGPAC; disulfide 1-22 (inferred); also: displayed on M13 phage pIII) [17D12-CDR3-C, truncated 17D12 lacking flanking FR residues, constrained loop, on M13 phage] |  |  | not apparent | bind dose-dependently | not to negative control peptide, ovalbumin | subtle degree of non-specific binding | subtle degree of non-specific binding | not apparent | bind dose-dependently to HSA | bind dose-dependently |  |
| dtavyycnaaasysdydvfgggtdfgpwgqgtqv (DTAVYYCNAAASYSDYDVFGGGTDFGPWGQGTQV; also: displayed on M13 pIII; listed as Lama glama) [17D12] | not to negative control peptide, ovalbumin | bind dose-dependently to HSA | not apparent | bind dose-dependently | not to negative control peptide, ovalbumin | no significant non-specific binding | no significant non-specific binding | not apparent | bind dose-dependently to HSA | bind dose-dependently | Binding of monoclonal phage to ovalbumin (screening) ([1]; screening after two selection rounds on HSA, phages diluted 1/10): not to ovalbumin; Binding of monoclonal phage to HSA (screening) ([2]; screening after two selection rounds on HSA, phages diluted 1/10, signal/background ratio very low): bind to HSA |
| B1 |  |  |  |  |  |  |  |  |  |  | EC50 (read off the curve) [7]: ~6e+10 phage/mL; binding result [8]: binds; binding result [9]: no binding; binding result [10]: no binding |
| B2 |  |  |  |  |  |  |  |  |  |  | binding result [11]: no binding (tested: 100 x10^10 phage/mL) |
| B3 |  |  |  |  |  |  |  |  |  |  | binding result [11]: no binding (tested: 100 x10^10 phage/mL) |

— patent US20080267949A1, “Peptides capable of binding to serum proteins” (Ablynx N.V., priority 2006, published 2008)
